From publication doi:10.1101/2024.04.20.590211
“And” between values parts separate entries of the source, which are not always exact repeats. Equal entries are not always repeated.

How the values were obtained:
[1] = biological target: FluPolA/H7N9-WT, wild-type influenza A/Zhejiang/DTID-ZJU01/2013(H7N9) polymerase heterotrimer (influenza A virus A/Zhejiang/DTID-ZJU01/2013(H7N9)) (UniProt M9TI86); test: SEC
[2] = biological target: FluPolB, influenza B/Memphis/2003 polymerase heterotrimer (wild type) (influenza B virus B/Memphis/2003) (UniProt Q5V8Z9); test: mass photometry

Row | Substance | stoichiometry N [1] | fraction of dimers [2] | stoichiometry N [2]
1 | FluPolA/H7N9-WT, wild-type influenza A/Zhejiang/DTID-ZJU01/2013(H7N9) polymerase heterotrimer (from UniProt M9TI86;M9TLW3;X5F427) (complex) | 2 | – | –
2 | FluPolB, influenza B/Memphis/2003 polymerase heterotrimer (wild type) (from UniProt Q5V8Z9;Q5V8Y6;Q5V8X3) (complex) | – | 7% and 15% | 2
